The subject of this series is Lac-mCherry (lac repressor-mCherry fusion, dimeric) (Escherichia coli). Description: in vitro transcription repression (indirect), global MWC fit. The note with it: no effector, R conformer (KRO); 20 mM Mg2+; 2 mM spermidine; 20 mM Tris-HCl pH 7.9, 20 mM MgCl2, 1 mM DTT, 2 mM spermidine-HCl, NTPs (0.5 mM GTP/ATP/UTP, 0.25 mM CTP), 37 C, 30 min.

For O1 operator reporter, linearized 450 bp, the Ka was 0.42 nM⁻¹.

Values taken from publication PMC4121545.
